Assay: soluble on expression in E. coli; label from the status in PepcDB or PDB records

Row | Sequence | soluble on expression in E. coli
1 | MSLKEENYRNQVTEDFEQKKQALPHGDLFTVFSNPDLSVYEQEALMFLYAYMPIGDVTDYSGDYYLENVRLSGQTRTEMPWGDLIPDELFRHFVLPIRVNNENLDDSRRVFYGELKDRVKHLSMKDAILEVNHWCHEKVVYRPSDARTSSPLASVKTAYGRCGEESTFTVAALRSVGIPARQVYTPRWAHTDDNHAWVEAWADGQWYFFGACEPEPVLNLGWFNAPASRGMLMHTKVFGRYTGPEEIMLETPNYTEINVIDNYAPTAKATVTVTDTEGHPVSGAKVEFKIYNYAEFYTVATKYTDAEGKAFLTAGKGDMLVWASRDGKFGYAKLSFGKEDALKLSLDKKVGESYTLPMDIVPPVEGANLPEVTPEQRAENDHRMTQEDSIRNAYVATMMTDEQAKEWVNGLYGNILQPETMKDKLAAFLVASRGNHQTLKDFLSAIRKEKKHISWEEMRGMWLLENISAKDLRDVTLDVLNDHLKNTSDGEKTDTDLVKRALLNPRIANEMLTPYKKILYDAISEAVLKSAPVDAAHDAKALIEWCRKEIKIDNELNSQQIPVSPMGVWKSRVADEKSRDIFFVAAARSIGIPAWIDEVTGKVQYVSDGLSPQDVNFETSQSTQSCTGMLKASYTPIRSLSDPKYYSHFTISKFKNGTFQLLNYDEGDVDMGGGATWSNLLKNGVKLDEGYYMMVTGTRLASGAVLSNTTFFTIEPDKTTTVDLVMRESKDQVQVIGNFNSEATYRPVGGTDLQSILQTCGRGYFVVAVLGVGQEPTNHALRDIAALRSEFEQWGRKMVFLFPSEEQYKKFNTHEFKDLPSTIVYGIDVDNSIQKQIVDAMKLNQSTLPVFIIADTFNRVVFVSQGYTIGLGEQLMKVVHGEGHHHHHH | soluble
2 | MAHHHHHHMALISQSFAERYAELVARVPTHTELLLDVQRREVGERKALEEMCQVAFQDVLHVAGVMIADKKALGRGALAHRNRFEVALYKKQTAVWFQAAPPRKVALPTTRPLHGFPHAAFAELCQEERELRQWHYGVERRLREHIEEACGRAWFFLNVINETARSESLSRQRLQHEEDEDFTAIKQSFFRAVPADYYRNVVIARYGQTISAIEQAKDLTFEELEEKVRAALMEEEEASWRSAYQYLQDMYDAQLFALNHREVLGRYELEEEERNTLFPLILQCCREDFGIVFYHIPALALHFNSSQPCLRALCVAQLQEAPRRMAATRSRFSWIPAFDLAGMASELGLEEDGDEIEDSAEGETQEAEGSTDGGDDLHNALPPPVDDMPPINTASTMVFEPEVGSSKVPEPETKREEAEVDTSQSAVVALAQRTHEESVLATEMEEHVPVSCAGEENE | soluble
3 | MQLLTEKDRPEEEKREETWRRLKRDIASSANTIHEIDTGKARGYNRALFVSSIFNKVSTFAGHGDVEIVQKAIDFISEYNAGIKKPVITPRHRFFQLAETASRMRDKLKETQELENREVTFEGGILVWNYQESRLQVFFNKIPEESKRRELKSSGFHWSPRNRAWQRQLNPNAVSAAKRILNL | not soluble
4 | MKYRDLREFLNLLEQQGELVRVKQEIDPYLEMAEIADRTLRKAGPAILFENPKGYQMPVLCNLFGTPKRVALGMGQENTQALRELGKLLAFLKEPEPPKGFKELLGQLPQWKQILNMPSKTRDNAACQQIVIEGDAVNLYDLPIMHCHEEDIAPLITWGLTITQGPHKKRQNLGIYRQQLIAKNKLIMRWLSHRGGALDFQEWKATYPDKPFPVSVAIGADPATILAAVTPIPDTLPEYAFAGLLRGHKTEVIKSISNQLDVPASAEIVLEGYIDVNETALEGPYGDHTGYYNEQEYFPVFTVTHITMRKDAIYHSTYTGRPPDEPAVLGEALNEVFIPILQKQFPEIVDFYLPPEGCSYRLAVVTIKKQYAGHAKRVMMGVWSFLRQFMYTKFVIVCDDDINARNWKDVIWAITTRCDPSRDTTLIENTPIDYLDFASPIAGLGSKMGIDATNKWNGETIREWGKPITKNQQVVQHIDELWDQLGLLEHHHHHH | not soluble
5 | GPGSMDAVRAMDYTDIYLRPRKKESVSPQEPLRSAQVDSAAESRVEWMLKGAFSVQQLLDRVEELSARVCMFDEKMVNLTKLVKLAQGIQEEKEADIRFQQQELLSRLKRLEQACARLEDMETFKQFIISKVQETLEDAHQAFLSDLAKIRADGEEQAARTKQRIENTVSDVRRDVEERIASLWGEAEQKDLSRQEAQDTLREKLRLVESSLRDLEMSVGRDYSRVPPLQEKIDGITQSLSSLEQKVDKTAGTVVTLGNEAKQARALLMEEIETTRQWVTRNLQRVKQHVEVISSDVEQLHNGRADLSARISRISCQADMECKKLRSQLSQKALVADALDNLVQKEFYKVEDVALRHQSLRTEVGAVKDV | not soluble
6 | MGSDKIHHHHHHMLLQRSTWPEVEAYLQQSDGIIIPIGSTEQHGPTGLIGTDAICAEAIAQGVADRTQALVGPTINVGMALHHLGFPGSVSLRPSTLLQVIVDYLSSLAQHGFRHFYFINGHGGNIATVRAAFAEFYAVAGDRRCPEPDRLRCHLANWFMVPAVTKLARELYGDEEGSHATPSEVALTQFIYPDSIKTAPLTVEVHSSHAIYAADDFRRRYPDGRMGSNPALATPEHGQQFYESAVAELSQSYQAFLAAD | not soluble
7 | MKKHHHHHHLVPRGSIPHLILELLKCEPDEPQVQAKIMAYLQQEQANRSKHEKLSTFGLMCKMADQTLFSIVEWARSSIFFRELKVDDQMKLLQNCWSELLILDHIYRQVVHGKEGSIFLVTGQQVDYSIIASQAGATLNNLMSHAQELVAKLRSLQFDQREFVCLKFLVLFSLDVKNLENFQLVEGVQEQVNAALLDYTMCNYPQQTEKFGQLLLRLPEIRAISMQAEEYLYYKHLNGDVPYNNLLIEMLHAKRA | soluble
8 | MEELQDDYEDMMEENLEQEEYEDPDIPESQMEEPAAHDTEATATDYHTTSHPGTHKVYVELQELVMDEKNQELRWMEAARWVQLEENLGENGAWGRPHLSHLTFWSLLELRRVFTKGTVLLDLQETSLAGVANQLLDRFIFEDQIRPQDREELLRALLLKHSHAGELEALGGVKPAVLTRSGDPSQPLLPQHSSLETQLFCEQGDGGTEGHSPSGILEKIPPDSEATLVLVGRADFLEQPVLGFVRLQEAAELEAVELPVPIRFLFVLLGPEAPHIDYTQLGRAAATLMSERVFRIDAYMAQSRGELLHSLEGFLDCSLVLPPTDAPSEQALLSLVPVQRELLRRRYQSSPAKPDSSFYKGLDLNGGPDDPLQQTGQLF | soluble
9 | MSRLRVFRQTGWFIAGLMTGLPATAAPAEASSMAGVAVAVATTTPPDATATLQAMQSCRRESAALERLDCYDHLLAPLSPSGFDGALVKAGFVGEAWTRATEQEKRREGNTTELLVTQVPGERPTVVITTPAIGHVPPRPVLMFSCVDNITRMQVALMHPLDVHDIAVTLNADSRALRSHWFVRENGTLLESSRGLSGIDEIKQLFGAKTLTVDTGADNAAGKLTFNIDGLARAIAPLRDACHWAGE | not soluble
10 | MTKDILILAVETSCDETSVSVIKNGRDILSNTVLSQIESHKRFGGVVPEVASRHHVEGITATINEALGDADVSIEDIDAIAVTEGPGLIGALLIGVNAAKALAFAYDKPLIPVHHIAGHIYANHIEEPLTFPLIALIVSGGHTELVYMKDHLSFEVIGETRDDAVGEAYDKVARTIGLNYPGGPQVDRLAAEGEDTYSFPRVWLDKDSYDFSFSGLKSAVINQLHNQRQKNIPIIEANVATSFQNSVVEVLTFKAIQACKEYGVQRLIVAGGVASNKGLRQSLADQCKVNDIQLTIPSPKLCTDNAAMIGVAGHYLYQQGRFADLALNGHSNIDLEEYSAE | not soluble
11 | ADVILFPSKNGAVTFTHKRHSEFVRECRSCHEKTPGKIRNFGKDYAHKTCKGCHEVRGAGPTKCKLCHTG | soluble
12 | MGSDKIHHHHHHMTQLSNKTKDSCNWDSIVIGSGLGGLVTASQLASKGAKVLVLEQYKIPGGSGGSFKRKGFTFDVGASMIFGFGNKGYTNLLTRALKDVGQKCETIPDPTQLAYHLPNQLEISVDRDYQKFITKLINLFPHEEKGIKHFYETCWDVFNCLDSMPLLSIEDPAYLMKVFFKSPLSCLGLARWLPVNAGDVAMRYIKDPDLLRFIDIECFCWSVMPANLTPMINAGMVFSDRHYGGINYPKGGVGVIAEKLVKGIKNLGGEIRYKSRVKKIIFEKGNAIGVSLENDEEIFSKTVVSNATRWDTFGGQGIKSPLVATENKPTSEKKWENRYIPSPSFLSLHLGVNVDSIPANTHCHHLLLDKWEEMDKEQGVTFVSIPTLLDPTLAPSGSHIVHAFTPSSIDNWDGLSNKEYLAKKKEDGDKLISKLERLFPNLSQNILHKEIGSPRTHKRFLARNKGSYGPIPSMRLPGLLPMPFNTTKINGLYCVGDSCFPGQGLNAVAFSGYACAHKIGTKLGMNKWELPE | not soluble
13 | MGSSHHHHHHGGTGENLYFQGGSGSSVTPTIPFKAWLKLHAKAICQALPLSLLIVVEARDLYYRATWDVAPVPPSKFEVGDVIAVCNRWYTLPTWSHVVYSWLSKVLLKSCWDDVGVISSVKNGTPHILYVDFHGVHEQPLATFLETRCPRGAAVRKLRRDEGVPSPSPAIADLFRKEVEMISVEPWFLFSASMRGGNEHKYYEFCVRMHEQRCKIRSMLQRRQSRPAIEAQQTSLKEMEVMRQHLAKFVEPVTHFHLYNGSLVASFFATYGLLDREMPSPSRYVPQDFAHTIPFLGATTLDEPIVFFRN | not soluble
14 | MGRFLLVDKKAPNYENLIDKEMNEIYERVKKIDPNQNEFLQAFHEILYSLKPLFMEDPKYLPIIEMLSEPERLVQFRVCWIDDNGIQRKNRGFRVQFNSTLGIYKGGLRFHPSVNLSIVKFLGFEQIFKNSLTGLSMGGAKGGSDFDPKGKSDNEIMKFCQSFMNELYRHIGPRTDVPAGDIGVGGREIGYLFGQYKKIANSFNGTLTGKNEKWGGSILRTEATGYGLVYFVLEVLKSLNIQMDKQTAIVSGSGNVALYCVQKLLQLNVKVLTMSDSNGYIYEPNGFTNDDLNFIIELKEVRKGRIEEYLKHSSTAKYFPNEKPWNVKCTLAFPCATQNEIDLDDAKLLHKNGCILVGEGANMPSTIEAINYLKENKIILCPSKAANAGGVAISGLEMSQNFQFAKWTKETVDEKLKEIMKNIFISSSESALKYANNKYDLQVGANISGFLKVADSYIQQGL | soluble
15 | MNEMPVQPTPAPPVDAPSPDGDRDLFGWRVRADLPLPELPVWAGDGRAPDILIRVAAVSPLDDGAQVFSPRIRFIEATLCFDVPDVARYRVDGGHLVTIEAARGIAADAPEIRLFFFGTVLAVLCFRRGLIPLHASAVALDGRALLLSGESGTGKSTLAAALLARGYPLLSDDLCALDVSCPDKPMILPCTAHLKLWGDAAARLGIATDGMTPVRRHLDKFRIPVRSASDAPLGPGTIIRLKRVTRAEQVGTRPLLGAEALCYDLIHRFRLGIALGYQSTMLTALAPLVRSAPIIQLNRRDDLGALPDLADHVIRLARDERRDLEHHHHHH | not soluble
16 | GVTKEIRIPTLEECDVCHGSGAKPGTQPQTCPTCHGSGQVQMRQGFFAVQQTCPHCQGRGTLIKDPCNKCHGHGRVERS | soluble
17 | MTVQTKTKGLAWQEKPLSDNERLKTESNFLRGTILDDLKDPLTGGFKGDNFQLIRFHGMYEQDDRDIRAERAEAKLEPLKFM | not soluble
18 | MGHHHHHHSHMSSYHCAMNNENARLLTFQTWPLTFLSPTDLAKAGFYYIGPGDRVACFACGGKLSNWEPKDNAMSEHLRHFPKCPFIENQLQDTSRYTVSNLSMQTHAARFKTFFNW | not soluble
19 | MSLTDLSMPKPPSVLPDKRQVAASFSRAAGSYESVAELQRSVGSELLSRLPAQFSPVRWLDLGSGTGYFSRALDQVFSGSEGIALDIAEGMLRHAQPLGGAQHFVAGDAEHLPLRDQSCGLIFSSLAVQWCADFAAVLREAHRVLQPSGVFAFASLCVGTLYELRDSWQAVDGQVHVNRFRHEDDYRQLCAASGLQVRSLDVCPQVLHYPDVRSLTHELKALGAHNLNPGRPSGLTGRERIKGMVQAYEAFRQEAGLPATYQVVYAVLEKAEGHHHHHH | not soluble

From the DeepSol protein solubility set
